Assay results as given in patent publication US20250388664A1 (BIOARCTIC, published 2025).
Like-named read-outs stand apart in the source and are kept apart here.

Experiments:
[1] = molecular target: T1, ectodomain of human TfR1 (His10-hTfR1; SEQ ID NO:110) (human, UniProt P02786 89-760); assay: indirect ELISA: plate coated with 1 µg/ml hTfR1 ectodomain, Fab in 1:3 serial dilution, anti-human IgG F(ab')2-HRP
T1 construct: also called ectodomain of hTfR1
Protocol: For the indirect ELISA, half area 96-well plates (Corning, #3690) were coated with 1 μg/ml recombinant ectodomain of hTfR1 (SEQ ID NO:110) in PBS overnight at 4° C. The coated plates were blocked using Pierce protein-free blocking solution (Thermo Fisher Scientific, #37572) for 1 h at room temperature with shaking and washed four times in PBS containing 0.1% TWEEN-20. Serial dilutions (1:3) of various expressed constructs in incubation buffer (1% BSA, 0.1% TWEEN-20 in PBS) were incubated for 1 h at room temperature. […] Following four wash steps, K-Blue® Aqueous TMB substrate (Neogen, #331177) was added to the wells for 15 min at room temperature before the reaction was stopped with 1:1 dilution of 0.5 M H₂SO₄. The optical density at 450 nm was recorded (Spark, Tecan) and background signal was subtracted before analysis.

[2] = molecular target: T2, truncated cTfR1 of SEQ ID NO:123 (cynomolgus monkey, UniProt Q5RDH6 122-760 (Pongo abelii entry)); assay: SPR, TfR1 amine-coupled, Fab injected, 1:1 fit
T2 construct: also called cynomolgus TfR1
T2 chain: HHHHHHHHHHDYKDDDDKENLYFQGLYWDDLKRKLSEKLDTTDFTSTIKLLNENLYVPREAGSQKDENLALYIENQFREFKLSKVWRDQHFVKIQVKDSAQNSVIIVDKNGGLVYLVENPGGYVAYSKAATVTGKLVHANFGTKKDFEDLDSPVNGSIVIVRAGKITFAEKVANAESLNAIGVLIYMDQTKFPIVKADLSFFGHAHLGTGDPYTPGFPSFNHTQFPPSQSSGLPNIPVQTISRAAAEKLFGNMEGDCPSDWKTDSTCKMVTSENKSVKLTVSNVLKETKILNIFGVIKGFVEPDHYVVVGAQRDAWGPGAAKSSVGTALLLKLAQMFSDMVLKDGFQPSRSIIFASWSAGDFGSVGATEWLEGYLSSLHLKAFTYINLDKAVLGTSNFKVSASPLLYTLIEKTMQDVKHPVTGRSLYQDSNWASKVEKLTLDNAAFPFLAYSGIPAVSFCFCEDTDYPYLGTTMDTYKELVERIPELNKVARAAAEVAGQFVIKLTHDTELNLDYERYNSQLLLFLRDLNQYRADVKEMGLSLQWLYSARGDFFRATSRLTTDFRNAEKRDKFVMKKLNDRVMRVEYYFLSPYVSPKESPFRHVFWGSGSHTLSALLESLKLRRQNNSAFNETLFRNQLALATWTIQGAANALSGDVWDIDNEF
Protocol: (§1) Binding of the purified Fabs to human and cynomolgus TfR1 was evaluated using either SPR (FIG. 44) or indirect ELISA (FIG. 45). For SPR, a Biacore 8K instrument (Cytiva) was used. […] The Fabs were injected over the chip using a 2-fold dilution series in four steps starting at 100 nM. The interaction was measured using the single cycle kinetics method with a contact time of 120 s at a flow rate of 30 μl/min followed by a dissociation time of 1000 s. Regeneration of the surface between cycles was done by injecting 3M MgCl₂. The binding data was fitted to a 1:1 interaction model. The Fabs were diluted in HBS-EP+ (Cytiva, #BR100669). Experiments were performed at 25° C.

[3] = molecular target: T3, truncated hTfR1 of SEQ ID NO:122 (human, UniProt P02786 122-760); assay: SPR, TfR1 amine-coupled, Fab injected, 1:1 fit
T3 construct: also called human TfR1; Human TfR1
Protocol: as §1

[4] = molecular target: T2, truncated cTfR1 of SEQ ID NO:123; assay: SPR, TfR1 amine-coupled, Fab injected, 1:1 fit
Protocol: (§2) The interaction was measured using the single cycle kinetics method with a contact time of 120 s at a flow rate of […] followed by a dissociation time of 600 s. Regeneration of the surface between cycles was done by injecting 3M MgCl₂. The binding data were fitted to a 1:1 interaction model. The Fabs were diluted in HBS-EP+ (Cytiva, #BR100669). Experiments were performed at 25° C.

[5] = molecular target: T3, truncated hTfR1 of SEQ ID NO:122; assay: SPR, TfR1 amine-coupled, Fab injected, 1:1 fit; remark: listed apart in the source
Protocol: as §2

[6] = molecular target: T4, AβpE3-42 protofibrils (UniProt P05067 674-713, pyroglutamate at position 3 (N-terminal residue)); assay: SPR, protofibrils immobilised, antibody injected, 1:1 fit, apparent
T4 construct: range 3-42 (Aβ numbering); Soluble aggregates made from AβpE3-42 peptide, purified in the void peak of SEC; also called AβpE3-42 PF
Protocol: (§3) Single cycle kinetics was also used to measure binding of the antibodies to AβpE3-42 protofibrils. […] For binding to AβpE3-42 protofibrils, the antibodies were injected over the chip using a 3-fold dilution series in five steps starting at 700 nM, using 2 min injection of every antibody concentration and a 60 min dissociation time. Regeneration of the surface between cycles was done by injecting 30 μl 10 mM glycine-HCl pH 1.7. The binding data was fitted to a 1:1 interaction model.
(§4) In all SPR experiments, 1×HBS-EP+ (Cytiva, cat. no. BR100669) was used as running buffer and to dilute antibodies and target antigens. Experiments were performed at 25° C.

[7] = molecular target: T5, Aβ1-28 monomer (UniProt P05067 672-699); assay: SPR, antibody immobilised
T5 construct: range 1-28 (Aβ numbering)
Protocol: Affinity and specificity evaluation and KD determination by surface plasmon resonance: Binding interactions between antigens and antibodies were evaluated by SPR using a Biacore 8K instrument (Cytiva) according to standard procedures. […] Additionally, the specificity towards different N-truncated forms of Aβ (Aβ2-28, Aβ3-28, Aβ4-28 and AβpE11-28 monomers) was evaluated.
(§5) Single cycle kinetics with the antibodies immobilized on a CM5 chip was used to measure the binding of the antibodies to the different monomers (AβpE3-40, AβpE11-28, Aβ1-28, Aβ2-28, Aβ3-28 and Aβ4-28). For the measurements, 5 μg/ml of analyte antibody was immobilized on the chip. […] Regeneration of the surface between cycles was done by injecting 30 μl 3 M MgCl₂. The binding data was fitted to a 1:1 interaction model.
as §4

[8] = molecular target: T6, Aβ3-28 monomer (UniProt P05067 674-699); assay: SPR, antibody immobilised, monomer injected, 1:1 fit
T6 construct: range 3-28 (Aβ numbering)
Protocol: as §5, §4

[9] = molecular target: T7, AβpE3-40 monomer (UniProt P05067 674-711, pyroglutamate at position 3 (N-terminal residue)); assay: as above
T7 construct: range 3-40 (Aβ numbering); Synthetic peptide (Bachem/Anaspec), verified monomeric by SEC; also called monomeric AβpE3-40
Protocol: as §5, §4

[10] = molecular target: T8, Aβ4-28 monomer (UniProt P05067 675-699); assay: as above
T8 construct: range 4-28 (Aβ numbering)
Protocol: as §5, §4

[11] = molecular target: T9, Aβ2-42 monomer (UniProt P05067 673-713); assay: ELISA: Aβ monomer captured on a polyclonal anti-Aβ42 coat, hybridoma supernatant diluted 1/243, anti-mouse IgG-HRP
T9 construct: range 2-42 (Aβ numbering)

[12] = molecular target: T10, Aβ1-42 monomer (UniProt P05067 672-713); assay: as above
T10 construct: range 1-42 (Aβ numbering)

[13] = molecular target: T4, AβpE3-42 protofibrils; assay: SPR, protofibrils immobilised, antibody injected, 1:1 fit, apparent; binding to AβpE3-42 protofibrils (not monomer); KD in pM
Protocol: as §3, §4

[14] = molecular target: T7, AβpE3-40 monomer; assay: inhibition ELISA, antigen titrated in solution, AβpE3-40 coat
Protocol: (§6) For binding to Aβ1-40 and AβpE11-40, the positive control 4G8 (Covance #SIG-39320, epitope: amino acids 17-24 of Aβ) was included. The recombinant antibodies were incubated at a fixed concentration (0.05 μg/ml) with titrating concentrations of the different Aβ antigens. After incubation for 45 min at 900 rpm to reach equilibrium, the antibody-Aβ samples were added to a blocked and washed ELISA plate with an AβpE3-40 coat (0.5 μM). The samples were incubated on the plate for 25 min without shaking followed by washing, incubation with detection antibody, another washing step and finally incubation with alkaline phosphatase substrate.

[15] = molecular target: T11, Aβ1-40 monomer (UniProt P05067 672-711); assay: as above
T11 construct: range 1-40 (Aβ numbering)
Protocol: as §6

[16] = molecular target: T4, AβpE3-42 protofibrils; assay: as above
Protocol: as §6

[17] = molecular target: T12, AβpE11-40 monomer (UniProt P05067 682-711, pyroglutamate at position 11 (N-terminal residue)); assay: as above
T12 construct: range 11-40 (Aβ numbering)
T12 peptide (looked up): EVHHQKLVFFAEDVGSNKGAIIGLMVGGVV
Protocol: as §6

[18] = molecular target: T13, AβpE11-28 monomer (UniProt P05067 682-699, pyroglutamate at position 11 (N-terminal residue)); assay: SPR, antibody immobilised
T13 construct: range 11-28 (Aβ numbering)
T13 peptide (looked up): EVHHQKLVFFAEDVGSNK
Protocol: as §5, §4

[19] = molecular target: T14, Aβ2-28 monomer (UniProt P05067 673-699); assay: SPR, antibody immobilised
T14 construct: range 2-28 (Aβ numbering)
Protocol: as §5, §4

[20] = molecular target: T15, hTfR1 (recombinant, construct not specified) (human, UniProt P02786 89-760, limits assumed); assay: ELISA on coated hTfR1, biotinylated scFv detected with streptavidin-HRP, after 48 h in mouse serum or PBS at 37°C or 4°C
T15 construct: also called biotinylated hTfR1
Protocol: After 48 h incubation, binding of the scFv to hTfR1 was evaluated by ELISA. […] The reaction was stopped by 1:1 addition of 0.5 M sulfuric acid (#35354-1L, Honeywell). Optical density at 450 nm was obtained using a microplate reader (Spark, Tecan) and the collected data was plotted using GraphPad Prism software (GraphPad Software Inc).

T8 sequence (P05067 675-699): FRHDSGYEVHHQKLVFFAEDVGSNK
T6 sequence (P05067 674-699): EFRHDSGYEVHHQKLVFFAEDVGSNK
T4 sequence (P05067 674-713): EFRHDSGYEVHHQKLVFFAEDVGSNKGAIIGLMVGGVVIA
T14 sequence (P05067 673-699): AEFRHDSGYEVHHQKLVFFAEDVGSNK
T9 sequence (P05067 673-713): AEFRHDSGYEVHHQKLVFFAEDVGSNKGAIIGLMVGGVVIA
T10 sequence (P05067 672-713): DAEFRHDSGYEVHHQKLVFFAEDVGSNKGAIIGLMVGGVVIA
T5 sequence (P05067 672-699): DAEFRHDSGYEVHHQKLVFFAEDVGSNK

B1: h26D3-Fab (Fab, V domains shown)
VH: EVQLVQSGAEVKKPGSSVKVSCKASGYIFTDYNMDWVRQAPGQGLEWIGDINPDYDTTSYNEKFKGRATLTVDKSTSTAYMELSSLRSEDTAVYYCARGGYSGSSYYHPMDYWGQGTLVTVSS
VL: DIQMTQSPSSVSASVGDRVTITCKSSQSLLYSTNQKNYLAWYQQKPGKAPKLLIYWASTRESGVPSRFSGSGSGTDFTLTISSLQPEDFATYYCQQYFIYPRTFGQGTKVEIK
notes: His-tagged Fab from ExpiCHO; also called humanized 26D3 Fab
- EC50 (read off the curve) [1]: ~0.3 nM
- Kd [2]: 12 nM
- Kd [3]: 10 nM
- Kd [4]: 5.8 nM
- Kd [5]: 3.2 nM
- koff [5]: 0.0045 s⁻¹
- kon [5]: 1.2e+06 M⁻¹ s⁻¹

B2: Pyr12.2 (antibody, V domains shown)
VH: EVQLQQSGPELVKPGTSIKMSCKASGYSFTGFTMNWVKQSHGKNLEWIGLINPYNGVTTYNQKFKGKATITVDKSSRTAYMELLSLTYEDSAVYYCTREGNWEGVYWGQGTPVTVSA
VL: EVVLTQTPLTLSVTIGQSASISCKSSQSLLDSNGKTYLHWFLLRPGQSPKRLIYLVSILDSGVPDRFTGSGSGTDFTLKISRVEAEDLGIYYCVQGTHFPFTFGSGTKLEIKR
notes: Murine anti-AβpE3 antibody; also called recombinant antibody Pyr12.2; hybridoma clone Pyr12.2
- koff [6]: 3.31e-06 s⁻¹
- kon [6]: 63100 M⁻¹ s⁻¹
- binding result [7]: no binding (tested: 2500 nM)
- Kd [8]: 42.6 nM
- koff [8]: 5.77e-05 s⁻¹
- kon [8]: 1750 M⁻¹ s⁻¹
- Kd [9]: 0.57 nM
- koff [9]: 4.12e-05 s⁻¹
- kon [9]: 71800 M⁻¹ s⁻¹
- Kd [10]: 6.76 µM
- koff [10]: 0.481 s⁻¹
- kon [10]: 78200 M⁻¹ s⁻¹
- binding result [11]: no binding
- binding result [12]: no binding
- Kd [13]: 0.0536 nM
- IC50 [14]: 1.52 nM
- IC50 [15]: > 5 µM
- IC50 [16]: 8.43 nM
- IC50 [17]: > 5 µM
- binding result [18]: no binding (tested: 2500 nM)
- binding result [19]: no binding (tested: 2500 nM)

B3: h26D3wt_DS, VL-first (His6 and Avi tags, biotinylated) (scFv)
scFv: DIQMTQSPSSVSASVGDRVTITCKSSQSLLYSTNQKNYLAWYQQKPGKAPKLLIYWASTRESGVPSRFSGSGSGTDFTLTISSLQPEDFATYYCQQYFIYPRTFGCGTKVEIKGGGGSGGGGSGGGGSGGGGSEVQLVQSGAEVKKPGSSVKVSCKASGYIFTDYNMDWVRQAPGQCLEWIGDINPDYDTTSYNEKFKGRATLTVDKSTSTAYMELSSLRSEDTAVYYCARGGYSGSSYYHPMDYWGQGTLVTVSS
modifications: biotin on the Avi tag (site directed in vivo biotinylation)
- EC50 (read off the curve) [20]: ~20 ng/mL
